According to patent publication US6608174B1, “Radiolabeled vasoactive intestinal peptide analogs for diagnosis and radiotherapy” (Dabur Research Foundation, priority 2000, dated 2003):
Square brackets hold non-standard residues; d marks the D form. Peptide text beside a SMILES is read from it. * marks the point of attachment. DTPA = O=C(O)CN(CCN(CC(=O)O)CC(=O)O)CCN(CC(=O)O)CC(=O)*; dPhe(4-Cl) = N[C@H](Cc1ccc(Cl)cc1)C(=O)O; Aib = CC(C)(N)C(=O)O; Ahx = NCCCCCC(=O)O

Test system: human adenocarcinoma tumor
Design: species or system NIH nu/nu nude mice
Conditions: mouse, in vivo, iv
Description: Tc-99m labeled peptide (SEQ ID NO: 10) was used to image tumors induced subcutaneously in the abdomen of NIH nu/nu nude mice. Following intravenous administration in human adenocarcinoma tumor bearing nude mice, images were taken at different time intervals post […], using a conventional gamma camera. […] The results are shown in FIG. 1 which clearly depicts that the accumulation of Tc-99m labeled VIP analog is high in tumor (indicated with arrow) as compared to the accumulation in viscera (unmarked dots) after 3 hours of injection.

Q: For `CC[C@H](C)[C@H](NC(=O)[C@H](CO)NC(=O)[C@H](CC(N)=O)NC(=O)[C@H](CC(C)C)NC(=O)[C@H](Cc1ccc(O)cc1)NC(=O)[C@H](CCCCN)NC(=O)[C@H](CCCCN)NC(=O)[C@@H](NC(=O)[C@H](C)NC(=O)[C@H](CC(C)C)NC(=O)[C@H](CCC(N)=O)NC(=O)[C@H](CCCCN)NC(=O)[C@H](CCCNC(=N)N)NC(=O)[C@H](CC(C)C)NC(=O)[C@H](CCCNC(=N)N)NC(=O)[C@@H](NC(=O)[C@H](Cc1ccc(O)cc1)NC(=O)[C@H](CC(N)=O)NC(=O)[C@H](CC(=O)O)NC(=O)[C@@H](NC(=O)[C@@H](Cc1ccc(Cl)cc1)NC(=O)[C@@H](NC(=O)C(C)(C)NC(=O)[C@H](CC(=O)O)NC(=O)[C@H](CO)NC(=O)[C@H](Cc1c[nH]cn1)NC(=O)CCCCCNC(=O)CN(CCN(CCN(CC(=O)O)CC(=O)O)CC(=O)O)CC(=O)O)C(C)C)[C@@H](C)O)[C@@H](C)O)C(C)C)C(=O)N[C@@H](CC(C)C)C(=O)N[C@@H](CC(N)=O)C(N)=O` [Tc-99m labeled peptide (SEQ ID NO: 10), metal not drawn] ({DTPA-Ahx}-HSD[Aib]V[dPhe(4-Cl)]TDNYTRLRKQLAVKKYLNSILN-NH2), which “accumulation in liver and kidney” value is on record?
A: little accumulation in liver and kidney

Q: And the blood clearance?
A: rapid blood clearance
